In patent US20240261333A1, “NOVEL TARGETS FOR ENHANCING ANTI-TUMOR IMMUNITY” (THE BROAD INSTITUTE, INC., priority 2021, published 2024):

Key:
[1] = target: LARP4 (human) (UniProt Q71RC2); assay: IgG control IP from lysate of C-FLAG B3GNT2 cells, mass spectrometry
[2] = target: UBTF (human) (UniProt P17480); assay: as above
[3] = target: ELOC (human) (UniProt Q15369); assay: as above
[4] = target: ATAD3A (human) (UniProt Q9NVI7); assay: as above
[5] = target: FBXO6 (human) (UniProt Q9NRD1); assay: as above
[6] = target: ACSL3 (human) (UniProt O95573); assay: as above
[7] = target: PSMA5 (human) (UniProt P28066); assay: as above
[8] = target: PDIA4 (human) (UniProt P13667); assay: as above
[9] = target: TUBA1C (human) (UniProt Q9BQE3); assay: as above
[10] = target: RPL34 (human) (UniProt P49207); assay: as above
[11] = target: STAU1 (human) (UniProt O95793); assay: as above
[12] = target: PXN (human) (UniProt P49023); assay: as above
[13] = target: DNAJA3 (human) (UniProt Q96EY1); assay: as above
[14] = target: RCN1 (human) (UniProt Q15293); assay: as above
Sequence of RCN1 (human) (Q15293 30-331 limits assumed): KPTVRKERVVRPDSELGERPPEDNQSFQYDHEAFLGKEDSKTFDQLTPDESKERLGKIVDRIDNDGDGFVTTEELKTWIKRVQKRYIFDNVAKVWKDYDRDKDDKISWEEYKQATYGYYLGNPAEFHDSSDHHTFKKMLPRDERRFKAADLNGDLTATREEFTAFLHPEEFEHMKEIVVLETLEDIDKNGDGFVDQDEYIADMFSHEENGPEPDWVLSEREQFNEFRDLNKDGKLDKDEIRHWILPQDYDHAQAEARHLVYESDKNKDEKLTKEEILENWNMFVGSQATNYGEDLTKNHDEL

[15] = target: RRBP1 (human) (UniProt Q9P2E9); assay: as above
[16] = target: TRAFD1 (human) (UniProt O14545); assay: as above
[17] = target: PSMB4 (human) (UniProt P28070); assay: as above
[18] = target: AIFM1 (human) (UniProt O95831); assay: as above
[19] = target: IPO7 (human) (UniProt O95373); assay: as above
Sequence of IPO7 (human) (O95373 whole entry): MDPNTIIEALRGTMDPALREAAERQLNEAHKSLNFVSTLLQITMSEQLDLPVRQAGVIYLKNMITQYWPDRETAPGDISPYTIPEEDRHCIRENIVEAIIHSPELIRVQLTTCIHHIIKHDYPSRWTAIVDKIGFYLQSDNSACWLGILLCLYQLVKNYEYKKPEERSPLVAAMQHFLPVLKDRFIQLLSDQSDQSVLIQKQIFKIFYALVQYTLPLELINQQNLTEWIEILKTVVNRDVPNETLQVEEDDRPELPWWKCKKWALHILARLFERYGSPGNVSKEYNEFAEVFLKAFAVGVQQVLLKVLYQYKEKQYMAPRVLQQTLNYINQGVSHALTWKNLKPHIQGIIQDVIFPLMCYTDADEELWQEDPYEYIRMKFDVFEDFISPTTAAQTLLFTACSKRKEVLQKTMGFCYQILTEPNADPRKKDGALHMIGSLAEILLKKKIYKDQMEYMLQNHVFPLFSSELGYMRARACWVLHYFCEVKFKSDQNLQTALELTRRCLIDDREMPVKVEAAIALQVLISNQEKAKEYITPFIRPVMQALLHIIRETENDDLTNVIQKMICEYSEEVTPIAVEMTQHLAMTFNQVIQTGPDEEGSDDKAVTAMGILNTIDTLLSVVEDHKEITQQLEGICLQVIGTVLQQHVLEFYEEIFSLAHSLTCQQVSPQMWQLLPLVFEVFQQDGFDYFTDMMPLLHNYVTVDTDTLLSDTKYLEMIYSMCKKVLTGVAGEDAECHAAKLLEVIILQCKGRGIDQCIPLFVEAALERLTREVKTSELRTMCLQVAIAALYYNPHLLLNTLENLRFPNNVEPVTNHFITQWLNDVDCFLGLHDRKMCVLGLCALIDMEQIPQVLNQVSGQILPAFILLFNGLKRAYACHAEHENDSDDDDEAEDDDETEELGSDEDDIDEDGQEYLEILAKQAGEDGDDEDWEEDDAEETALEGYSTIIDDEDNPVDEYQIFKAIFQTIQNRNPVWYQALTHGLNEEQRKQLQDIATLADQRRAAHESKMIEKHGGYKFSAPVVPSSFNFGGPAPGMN

[20] = target: LRPPRC (UniProt P42704); assay: co-IP, anti-FLAG, lysate of C-FLAG B3GNT2 cells, mass spectrometry
[21] = target: HSPH1 (UniProt Q92598); assay: as above
[22] = target: RPL18A (UniProt Q02543); assay: as above
[23] = target: ABCF1 (UniProt Q8NE71); assay: as above
Sequence of ABCF1 (Q8NE71 whole entry): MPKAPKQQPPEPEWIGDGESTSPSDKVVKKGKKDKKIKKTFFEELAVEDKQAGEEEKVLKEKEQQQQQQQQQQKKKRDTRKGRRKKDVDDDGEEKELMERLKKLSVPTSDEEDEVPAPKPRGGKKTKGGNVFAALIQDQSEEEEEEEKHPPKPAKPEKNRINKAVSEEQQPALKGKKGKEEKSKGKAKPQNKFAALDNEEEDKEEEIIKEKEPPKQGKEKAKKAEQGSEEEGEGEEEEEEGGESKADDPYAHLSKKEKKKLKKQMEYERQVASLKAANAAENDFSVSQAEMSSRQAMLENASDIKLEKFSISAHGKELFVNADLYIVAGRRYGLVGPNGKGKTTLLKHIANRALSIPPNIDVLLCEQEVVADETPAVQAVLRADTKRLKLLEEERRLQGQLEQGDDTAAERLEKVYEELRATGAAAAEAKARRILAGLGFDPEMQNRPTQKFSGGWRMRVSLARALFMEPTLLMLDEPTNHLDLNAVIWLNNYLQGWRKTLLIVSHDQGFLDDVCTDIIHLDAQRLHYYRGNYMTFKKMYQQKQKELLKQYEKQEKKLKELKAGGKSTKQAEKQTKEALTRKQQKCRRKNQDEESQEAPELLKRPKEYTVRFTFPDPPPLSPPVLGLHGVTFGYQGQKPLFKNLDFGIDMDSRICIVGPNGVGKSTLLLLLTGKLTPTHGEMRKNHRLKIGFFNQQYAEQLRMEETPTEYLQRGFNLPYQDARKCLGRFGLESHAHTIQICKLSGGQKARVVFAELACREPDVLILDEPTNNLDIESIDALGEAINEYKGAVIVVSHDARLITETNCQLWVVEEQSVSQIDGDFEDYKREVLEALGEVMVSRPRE

[24] = target: SLC25A10 (UniProt Q9UBX3); assay: as above
Sequence of SLC25A10 (Q9UBX3 other isoform, or with tags, fused parts or gaps limits assumed): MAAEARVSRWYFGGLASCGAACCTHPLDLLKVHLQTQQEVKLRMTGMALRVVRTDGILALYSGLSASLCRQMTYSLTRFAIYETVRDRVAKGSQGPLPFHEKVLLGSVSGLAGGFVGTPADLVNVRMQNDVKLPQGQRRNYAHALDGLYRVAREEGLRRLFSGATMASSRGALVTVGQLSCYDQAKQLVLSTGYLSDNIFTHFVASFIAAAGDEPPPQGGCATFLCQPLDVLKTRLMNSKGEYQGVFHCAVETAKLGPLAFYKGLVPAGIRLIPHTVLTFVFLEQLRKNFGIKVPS

[25] = target: MAP1B (UniProt P46821); assay: as above
[26] = target: PPIB (UniProt P23284); assay: as above
[27] = target: HSPA5 (UniProt P11021); assay: as above
Sequence of HSPA5 (P11021 19-654 limits assumed): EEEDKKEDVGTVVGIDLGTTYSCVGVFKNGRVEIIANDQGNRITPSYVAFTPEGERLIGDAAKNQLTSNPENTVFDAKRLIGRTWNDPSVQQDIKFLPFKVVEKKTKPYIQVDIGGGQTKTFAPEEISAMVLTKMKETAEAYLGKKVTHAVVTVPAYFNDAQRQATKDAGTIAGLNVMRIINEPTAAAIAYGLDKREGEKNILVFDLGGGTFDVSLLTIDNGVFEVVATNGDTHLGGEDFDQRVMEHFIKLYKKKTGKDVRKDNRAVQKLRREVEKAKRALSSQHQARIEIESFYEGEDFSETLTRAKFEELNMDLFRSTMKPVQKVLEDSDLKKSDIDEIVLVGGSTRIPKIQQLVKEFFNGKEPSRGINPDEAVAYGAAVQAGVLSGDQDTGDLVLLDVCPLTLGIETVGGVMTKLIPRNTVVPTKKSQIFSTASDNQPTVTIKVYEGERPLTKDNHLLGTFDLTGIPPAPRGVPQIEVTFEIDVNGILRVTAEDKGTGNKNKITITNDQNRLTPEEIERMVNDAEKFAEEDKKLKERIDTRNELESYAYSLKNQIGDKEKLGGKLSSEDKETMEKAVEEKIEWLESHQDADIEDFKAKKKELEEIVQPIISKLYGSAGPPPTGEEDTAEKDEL

[28] = target: RNASE1 (UniProt P07998); assay: as above
Sequence of RNASE1 (P07998 29-156 limits assumed): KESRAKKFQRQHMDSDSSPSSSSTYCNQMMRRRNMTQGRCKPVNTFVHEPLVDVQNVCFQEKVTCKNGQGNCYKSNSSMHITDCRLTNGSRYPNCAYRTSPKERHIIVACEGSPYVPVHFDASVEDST

[29] = target: ARPC2 (UniProt O15144); assay: as above
[30] = target: OS9 (UniProt Q13438); assay: as above
Sequence of OS9 (Q13438 other isoform, or with tags, fused parts or gaps limits assumed): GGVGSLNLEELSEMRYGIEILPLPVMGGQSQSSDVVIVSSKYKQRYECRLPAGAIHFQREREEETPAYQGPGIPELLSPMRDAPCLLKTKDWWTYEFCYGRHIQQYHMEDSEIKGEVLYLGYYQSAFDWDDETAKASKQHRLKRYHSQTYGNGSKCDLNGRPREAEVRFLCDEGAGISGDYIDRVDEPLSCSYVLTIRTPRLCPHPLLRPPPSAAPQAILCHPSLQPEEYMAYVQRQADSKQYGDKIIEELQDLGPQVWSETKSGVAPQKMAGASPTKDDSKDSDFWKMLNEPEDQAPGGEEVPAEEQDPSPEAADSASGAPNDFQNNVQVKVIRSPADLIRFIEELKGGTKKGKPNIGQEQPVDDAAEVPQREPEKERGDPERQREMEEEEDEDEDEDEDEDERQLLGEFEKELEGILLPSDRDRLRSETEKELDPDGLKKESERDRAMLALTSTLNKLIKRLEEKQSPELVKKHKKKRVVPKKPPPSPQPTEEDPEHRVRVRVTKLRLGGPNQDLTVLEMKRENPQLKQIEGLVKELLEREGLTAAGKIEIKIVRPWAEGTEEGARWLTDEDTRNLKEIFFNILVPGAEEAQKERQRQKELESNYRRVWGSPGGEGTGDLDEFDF

[31] = target: TNC (UniProt P24821); assay: as above
[32] = target: CNP (UniProt P09543); assay: as above
Sequence of CNP (P09543 21-418 limits assumed): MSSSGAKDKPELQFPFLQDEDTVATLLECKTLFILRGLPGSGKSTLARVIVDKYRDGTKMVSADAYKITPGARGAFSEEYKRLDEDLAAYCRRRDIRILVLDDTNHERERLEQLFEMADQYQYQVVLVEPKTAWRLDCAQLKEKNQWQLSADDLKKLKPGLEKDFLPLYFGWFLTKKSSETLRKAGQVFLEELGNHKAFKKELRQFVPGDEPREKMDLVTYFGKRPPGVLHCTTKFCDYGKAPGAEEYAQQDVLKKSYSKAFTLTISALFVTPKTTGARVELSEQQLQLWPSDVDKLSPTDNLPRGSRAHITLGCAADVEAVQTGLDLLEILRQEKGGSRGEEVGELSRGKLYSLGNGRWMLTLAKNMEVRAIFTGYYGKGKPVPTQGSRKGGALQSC

[33] = target: TM9SF3 (UniProt Q9HD45); assay: as above
[34] = target: SLC25A3 (UniProt Q00325); assay: as above
[35] = target: MYO1D (UniProt O94832); assay: as above
[36] = target: DPM1 (UniProt O60762); assay: as above
[37] = target: NCL (UniProt P19338); assay: as above
[38] = target: CEP170 (UniProt Q5SW79); assay: as above
[39] = target: SLC25A1 (UniProt P53007); assay: as above

Sequence of ATAD3A (human) (Q9NVI7 2-586 limits assumed): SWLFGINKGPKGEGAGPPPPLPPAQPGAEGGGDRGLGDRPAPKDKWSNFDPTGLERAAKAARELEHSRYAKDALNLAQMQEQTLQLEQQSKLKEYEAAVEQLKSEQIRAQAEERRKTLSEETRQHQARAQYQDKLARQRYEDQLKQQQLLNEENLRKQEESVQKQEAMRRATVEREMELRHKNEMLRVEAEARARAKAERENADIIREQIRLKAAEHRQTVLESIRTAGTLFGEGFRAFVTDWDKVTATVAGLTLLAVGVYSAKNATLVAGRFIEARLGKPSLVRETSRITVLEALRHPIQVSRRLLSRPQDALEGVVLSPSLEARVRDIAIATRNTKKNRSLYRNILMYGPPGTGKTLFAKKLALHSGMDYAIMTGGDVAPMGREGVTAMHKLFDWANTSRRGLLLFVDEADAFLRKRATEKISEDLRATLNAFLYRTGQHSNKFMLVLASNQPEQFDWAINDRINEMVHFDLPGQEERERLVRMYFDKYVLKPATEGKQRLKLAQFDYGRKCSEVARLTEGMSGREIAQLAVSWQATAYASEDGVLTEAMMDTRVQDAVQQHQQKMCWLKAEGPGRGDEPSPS
Sequence of ELOC (human) (Q15369 whole entry): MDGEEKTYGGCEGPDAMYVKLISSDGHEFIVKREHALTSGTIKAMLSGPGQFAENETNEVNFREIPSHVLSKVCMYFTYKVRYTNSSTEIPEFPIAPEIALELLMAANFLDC

Work on “IgG control (Millipore Sigma 12-371) (antibody)” yielded a co-IP mass spectrometry count [1] of 0, a co-IP mass spectrometry count [2] of 0 and a co-IP mass spectrometry count [3] of 0. It also gave a co-IP mass spectrometry count [4] of 0, a co-IP mass spectrometry count [5] of 0 and a co-IP mass spectrometry count [6] of 0. For the same substance, the co-IP mass spectrometry count [7] was 0, the co-IP mass spectrometry count [8] was 0 and the co-IP mass spectrometry count [9] was 14. For the same substance, the co-IP mass spectrometry count [10] was 0, the co-IP mass spectrometry count [11] was 0 and the co-IP mass spectrometry count [12] was 0. For the same substance, the co-IP mass spectrometry count [13] was 0, the co-IP mass spectrometry count [14] was 0 and the co-IP mass spectrometry count [15] was 2. For the same substance, the co-IP mass spectrometry count [16] was 0, the co-IP mass spectrometry count [17] was 0 and the co-IP mass spectrometry count [18] was 0. For the same substance, the co-IP mass spectrometry count [19] was 0.

In the case of “C-terminal FLAG tagged B3GNT2 (from UniProt Q9NY97 1-397) (enzyme)”, the co-IP/MS count [20] is reported as 9, the co-IP/MS count [21] is reported as 7 and the co-IP/MS count [22] is reported as 12. It also gave a co-IP/MS count [23] of 2, a co-IP/MS count [24] of 6 and a co-IP/MS count [25] of 2. The co-IP/MS count [26] was 2, the co-IP/MS count [27] was 130 and the co-IP/MS count [28] was 2. It also gave a co-IP/MS count [29] of 2, a co-IP/MS count [30] of 9 and a co-IP/MS count [31] of 10. For the same substance, the co-IP/MS count [32] was 7, the co-IP/MS count [33] was 11 and the co-IP/MS count [34] was 9. For the same substance, the co-IP/MS count [35] was 2, the co-IP/MS count [36] was 8 and the co-IP/MS count [37] was 11. For the same substance, the co-IP/MS count [38] was 2 and the co-IP/MS count [39] was 8.
